Reference: paper PMC2173062 (The Journal of Cell Biology, 2002)

Tests used:
[1] = molecular target: bovine Hsc70, recombinant wild type (bovine, UniProt P19120 1-650); experiment: pull-down
[2] = molecular target: bovine Hsc70 R447H, recombinant mutant (bovine, UniProt P19120 1-650, R447H); experiment: pull-down
Sequence of bovine Hsc70 R447H, recombinant mutant (P19120 whole entry R447H): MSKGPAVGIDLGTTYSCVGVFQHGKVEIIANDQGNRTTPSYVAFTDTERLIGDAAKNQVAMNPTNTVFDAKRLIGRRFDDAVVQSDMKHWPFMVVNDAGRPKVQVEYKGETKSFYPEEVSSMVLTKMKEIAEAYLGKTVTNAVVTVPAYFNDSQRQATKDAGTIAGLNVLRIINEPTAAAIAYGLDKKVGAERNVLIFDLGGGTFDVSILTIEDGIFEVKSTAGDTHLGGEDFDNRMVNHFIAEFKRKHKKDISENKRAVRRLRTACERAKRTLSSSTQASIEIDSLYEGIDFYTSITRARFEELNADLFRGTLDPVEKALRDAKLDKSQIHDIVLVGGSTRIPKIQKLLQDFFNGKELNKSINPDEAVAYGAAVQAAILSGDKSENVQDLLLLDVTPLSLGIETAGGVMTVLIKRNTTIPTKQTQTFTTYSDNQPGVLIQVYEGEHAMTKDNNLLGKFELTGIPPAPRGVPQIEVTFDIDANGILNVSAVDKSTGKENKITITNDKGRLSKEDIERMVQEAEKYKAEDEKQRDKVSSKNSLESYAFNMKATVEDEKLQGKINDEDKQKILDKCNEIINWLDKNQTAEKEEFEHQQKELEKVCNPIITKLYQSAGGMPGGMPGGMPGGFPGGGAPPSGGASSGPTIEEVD

Sequence of bovine Hsc70, recombinant wild type (P19120 whole entry): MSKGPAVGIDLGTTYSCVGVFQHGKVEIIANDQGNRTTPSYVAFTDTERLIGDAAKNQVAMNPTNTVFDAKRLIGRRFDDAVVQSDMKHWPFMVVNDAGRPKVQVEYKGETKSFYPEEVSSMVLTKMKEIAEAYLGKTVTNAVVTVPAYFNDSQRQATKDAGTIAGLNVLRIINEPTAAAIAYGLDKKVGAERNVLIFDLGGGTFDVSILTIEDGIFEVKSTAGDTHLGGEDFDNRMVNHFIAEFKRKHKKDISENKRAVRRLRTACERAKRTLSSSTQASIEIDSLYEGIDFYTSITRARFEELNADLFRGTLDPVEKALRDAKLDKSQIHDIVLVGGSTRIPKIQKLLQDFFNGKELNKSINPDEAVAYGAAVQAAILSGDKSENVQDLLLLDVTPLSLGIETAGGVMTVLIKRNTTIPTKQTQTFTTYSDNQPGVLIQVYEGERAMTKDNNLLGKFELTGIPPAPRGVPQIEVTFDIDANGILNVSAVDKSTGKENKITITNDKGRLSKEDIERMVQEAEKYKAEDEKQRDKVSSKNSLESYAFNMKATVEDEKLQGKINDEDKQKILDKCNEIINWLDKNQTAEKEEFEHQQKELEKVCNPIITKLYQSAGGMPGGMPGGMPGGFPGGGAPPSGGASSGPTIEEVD

B1: GST-J^aux, J-domain of bovine auxilin (residues 813-910) fused to GST (domain or fragment, UniProt Q27974 813-910, looked up)
chain: DPEKLKILEWIEGKERNIRALLSTMHTVLWAGETKWKPVGMADLVTPEQVKKVYRKAVLVVHPDKATGQPYEQYAKMIFMELNDAWSEFENQGQKPLY
binding result [1]: binds
binding result [2]: binds
